This note sets out measurements from publication PMC9960064 (The Journal of Cell Biology, 2023).

As usually defined, the Kd is the constant that tells how readily two partners part at equilibrium. A higher Kd goes with a looser complex. A word on the stoichiometry N: it is a count of units in the complex or per binding partner.

Assay [1] addresses T1, untagged β′-COP residues 1–604 (yeast (S. cerevisiae), UniProt P41811 1-604).
T1 sequence (looked up): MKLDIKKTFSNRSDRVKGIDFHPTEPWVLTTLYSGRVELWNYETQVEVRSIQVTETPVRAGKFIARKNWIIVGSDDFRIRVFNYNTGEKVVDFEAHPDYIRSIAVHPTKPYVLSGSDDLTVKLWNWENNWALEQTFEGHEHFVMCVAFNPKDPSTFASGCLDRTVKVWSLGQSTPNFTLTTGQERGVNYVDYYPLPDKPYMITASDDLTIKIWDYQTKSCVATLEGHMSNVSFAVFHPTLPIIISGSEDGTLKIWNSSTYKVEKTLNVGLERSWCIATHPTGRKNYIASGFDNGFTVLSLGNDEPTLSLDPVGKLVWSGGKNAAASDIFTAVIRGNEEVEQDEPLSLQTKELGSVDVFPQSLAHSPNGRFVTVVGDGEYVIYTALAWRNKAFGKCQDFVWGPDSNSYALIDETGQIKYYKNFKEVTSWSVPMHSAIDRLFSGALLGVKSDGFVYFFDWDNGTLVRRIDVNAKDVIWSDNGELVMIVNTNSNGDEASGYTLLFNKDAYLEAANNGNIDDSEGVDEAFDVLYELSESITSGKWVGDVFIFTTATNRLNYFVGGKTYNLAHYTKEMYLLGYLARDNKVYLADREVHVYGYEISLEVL
The experiment in a line: ITC. In general terms: ITC needs no label: the signal is the heat of the interaction.

The next assay concerns the target T2, β′604-H6 (yeast (S. cerevisiae), UniProt P41811 1-604).
T2 sequence (looked up): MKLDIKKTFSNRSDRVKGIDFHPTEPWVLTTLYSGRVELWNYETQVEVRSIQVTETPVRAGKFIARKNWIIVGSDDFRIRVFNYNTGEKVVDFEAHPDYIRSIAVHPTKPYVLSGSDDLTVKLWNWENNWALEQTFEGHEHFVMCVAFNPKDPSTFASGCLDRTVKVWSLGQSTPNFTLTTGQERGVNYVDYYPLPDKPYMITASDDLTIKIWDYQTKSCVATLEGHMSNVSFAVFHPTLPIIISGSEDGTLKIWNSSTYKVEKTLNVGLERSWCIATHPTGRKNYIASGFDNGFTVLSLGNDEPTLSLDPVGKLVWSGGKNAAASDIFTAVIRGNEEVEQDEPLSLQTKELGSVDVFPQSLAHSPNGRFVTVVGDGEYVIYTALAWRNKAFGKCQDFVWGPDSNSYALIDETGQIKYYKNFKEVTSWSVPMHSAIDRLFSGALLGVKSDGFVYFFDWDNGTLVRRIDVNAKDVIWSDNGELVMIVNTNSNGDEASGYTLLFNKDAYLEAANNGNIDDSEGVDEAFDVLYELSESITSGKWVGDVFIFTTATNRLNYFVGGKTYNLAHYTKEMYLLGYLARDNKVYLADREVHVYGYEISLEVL
The experiment in a line: pull-down.

Assay [2] has as its target T3, β′-COP residues 1–604 with a C-terminal GST tag (yeast (S. cerevisiae), UniProt P41811 1-604).
T3 sequence (looked up): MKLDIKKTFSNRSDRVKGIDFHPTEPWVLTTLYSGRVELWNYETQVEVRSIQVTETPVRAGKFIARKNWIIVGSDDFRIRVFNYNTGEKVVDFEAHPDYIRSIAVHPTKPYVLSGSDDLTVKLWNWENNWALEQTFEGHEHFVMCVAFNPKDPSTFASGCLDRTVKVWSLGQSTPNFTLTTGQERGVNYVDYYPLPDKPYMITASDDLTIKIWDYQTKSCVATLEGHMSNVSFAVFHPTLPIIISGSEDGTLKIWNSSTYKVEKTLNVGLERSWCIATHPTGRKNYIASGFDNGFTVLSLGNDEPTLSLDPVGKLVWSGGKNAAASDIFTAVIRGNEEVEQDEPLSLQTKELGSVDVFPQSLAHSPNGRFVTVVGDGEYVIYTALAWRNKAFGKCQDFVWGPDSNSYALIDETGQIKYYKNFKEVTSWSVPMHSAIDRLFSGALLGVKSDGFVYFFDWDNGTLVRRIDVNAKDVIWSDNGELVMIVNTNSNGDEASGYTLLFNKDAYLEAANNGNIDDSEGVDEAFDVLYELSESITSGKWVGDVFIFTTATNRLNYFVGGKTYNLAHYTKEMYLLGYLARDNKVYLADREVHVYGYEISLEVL
The assay can be described thus: pull-down.

For assay [3], the target named is T4, mutant β′-COP (D437A/D450A), residues 1–604, untagged (yeast (S. cerevisiae), UniProt P41811 1-604, D437A | D450A).
T4 sequence (looked up): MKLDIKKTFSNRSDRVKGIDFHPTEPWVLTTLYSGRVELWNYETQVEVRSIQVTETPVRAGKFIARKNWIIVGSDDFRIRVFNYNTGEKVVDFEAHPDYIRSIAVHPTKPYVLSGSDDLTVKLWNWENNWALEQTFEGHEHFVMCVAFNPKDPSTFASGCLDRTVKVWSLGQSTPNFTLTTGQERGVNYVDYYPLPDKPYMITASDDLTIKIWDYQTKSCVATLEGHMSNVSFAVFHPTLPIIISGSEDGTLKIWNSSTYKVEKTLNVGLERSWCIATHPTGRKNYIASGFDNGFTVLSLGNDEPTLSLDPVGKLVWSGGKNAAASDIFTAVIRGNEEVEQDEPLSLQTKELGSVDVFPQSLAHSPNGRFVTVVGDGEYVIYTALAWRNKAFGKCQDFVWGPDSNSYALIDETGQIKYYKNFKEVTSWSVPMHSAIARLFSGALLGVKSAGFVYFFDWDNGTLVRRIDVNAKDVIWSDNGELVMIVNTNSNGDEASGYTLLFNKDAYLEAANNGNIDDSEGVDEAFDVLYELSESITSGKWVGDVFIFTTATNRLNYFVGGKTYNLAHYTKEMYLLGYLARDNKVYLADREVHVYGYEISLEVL
The assay can be described thus: ITC.

Assay [4] has as its target T5, β′-COP D98A/D117A, residues 1–604, untagged (yeast (S. cerevisiae), UniProt P41811 1-604, D98A | D117A).
T5 sequence (looked up): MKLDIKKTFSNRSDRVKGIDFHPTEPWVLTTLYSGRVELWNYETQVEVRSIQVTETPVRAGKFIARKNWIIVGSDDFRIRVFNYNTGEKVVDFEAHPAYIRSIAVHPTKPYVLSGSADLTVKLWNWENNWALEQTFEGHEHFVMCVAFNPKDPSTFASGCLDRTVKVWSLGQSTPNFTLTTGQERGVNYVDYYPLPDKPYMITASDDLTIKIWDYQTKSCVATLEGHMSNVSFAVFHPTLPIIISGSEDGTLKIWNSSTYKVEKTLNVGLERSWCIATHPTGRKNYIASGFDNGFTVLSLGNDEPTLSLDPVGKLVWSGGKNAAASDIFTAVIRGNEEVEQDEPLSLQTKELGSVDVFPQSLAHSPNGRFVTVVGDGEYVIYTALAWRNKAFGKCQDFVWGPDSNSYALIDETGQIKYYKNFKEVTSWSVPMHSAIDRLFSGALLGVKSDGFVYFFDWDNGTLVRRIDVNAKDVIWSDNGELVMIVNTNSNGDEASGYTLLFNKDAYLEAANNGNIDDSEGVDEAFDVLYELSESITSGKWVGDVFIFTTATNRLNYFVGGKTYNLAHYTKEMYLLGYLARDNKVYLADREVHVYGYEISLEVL
The assay can be described thus: ITC.

In assay [5] the target is T6, N-terminal β′-COP propeller (residues 1–304), untagged (yeast (S. cerevisiae), UniProt P41811 1-304).
T6 sequence (looked up): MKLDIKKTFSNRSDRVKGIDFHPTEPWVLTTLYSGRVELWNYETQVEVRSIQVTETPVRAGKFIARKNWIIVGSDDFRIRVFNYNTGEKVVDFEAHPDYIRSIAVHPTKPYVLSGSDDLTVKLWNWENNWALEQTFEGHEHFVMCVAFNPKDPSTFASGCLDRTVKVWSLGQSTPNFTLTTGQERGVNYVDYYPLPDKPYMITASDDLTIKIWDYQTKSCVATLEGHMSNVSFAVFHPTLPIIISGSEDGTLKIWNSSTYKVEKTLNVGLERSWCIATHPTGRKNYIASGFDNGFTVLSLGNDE
The experiment in a line: ITC.

Where “and” joins values, the source holds several entries; their conditions need not be identical. Equal values may be shown once.

B1: Glo3 residues 220–290, untagged (domain or fragment, yeast (S. cerevisiae), UniProt P38682 220-290, looked up)
chain: TASRKKPVLNSQDKKKHSILSSSRKPTRLTAKKVDKSQAEDLFDQFKKEAQQEKEDEFTNSSSSTKIRQND
Turning to B1, in assay [1], the binding result is reported as “binds”.

B2: GST-BoCCS, Glo3 residues 208–383 (domain or fragment, yeast (S. cerevisiae), UniProt P38682 208-383, looked up)
chain: KTTVTKTRSSILTASRKKPVLNSQDKKKHSILSSSRKPTRLTAKKVDKSQAEDLFDQFKKEAQQEKEDEFTNSSSSTKIRQNDYDSQFMNNSKGNNNNSIDDINTQPDEFNDFLNDTSNSFDTTRKEQQDTLTPKFAKLGFGMTMNDANDLAKQQKESQKIAQGPRYTGRIAERYG
Turning to B2, the binding result in the assay with β′604-H6 is “binds”.

B3: full-length Glo3-H8 (natural protein)
chain: not shown
Consider B3, for which, in assay [2], the binding result is “binds”.

B4: untagged Glo3 residues 230–290 (domain or fragment, yeast (S. cerevisiae), UniProt P38682 230-290, looked up)
chain: SQDKKKHSILSSSRKPTRLTAKKVDKSQAEDLFDQFKKEAQQEKEDEFTNSSSSTKIRQND
In assay [3], B4 yielded a dissociation constant (Kd) of 18 µM. The binding result in assay [4] was “binds”. For the same molecule, in assay [1], the Kd was 0.6 µM and 0.8 to 6 µM; the “stoichiometry N” value was 1.

B5: Glo3 (residues 230–290) K233E (domain or fragment, yeast (S. cerevisiae), UniProt P38682 230-290, looked up)
chain: SQDEKKHSILSSSRKPTRLTAKKVDKSQAEDLFDQFKKEAQQEKEDEFTNSSSSTKIRQND
Regarding B5, the Kd in assay [1] is around 12 µM.

B6: Glo3 (residues 230–290) K233E/K234E/K235E (domain or fragment, yeast (S. cerevisiae), UniProt P38682 230-290, looked up)
chain: SQDEEEHSILSSSRKPTRLTAKKVDKSQAEDLFDQFKKEAQQEKEDEFTNSSSSTKIRQND
In turn, B6 had a Kd in assay [1] below 300 µM.

B7: Glo3 (residues 230–290) K251E/K252E/K255E (domain or fragment, yeast (S. cerevisiae), UniProt P38682 230-290, looked up)
chain: SQDKKKHSILSSSRKPTRLTAEEVDESQAEDLFDQFKKEAQQEKEDEFTNSSSSTKIRQND
B7 displayed a Kd in assay [1] of around 12 µM.

B8: untagged Glo3 BoCCS fragment (residues 230–300) (domain or fragment, yeast (S. cerevisiae), UniProt P38682 230-300, looked up)
chain: SQDKKKHSILSSSRKPTRLTAKKVDKSQAEDLFDQFKKEAQQEKEDEFTNSSSSTKIRQNDYDSQFMNNSK
B8: the Kd was below 300 µM in assay [5] and around 1 µM in assay [1]. In addition, the “stoichiometry N” value in assay [1] was 1.

B9: Glo3 residues 230–270, untagged (domain or fragment, yeast (S. cerevisiae), UniProt P38682 230-270, looked up)
chain: SQDKKKHSILSSSRKPTRLTAKKVDKSQAEDLFDQFKKEAQ
Regarding B9, in assay [1], the binding result is “binds”.
